The series concerns the molecule itself. As to the kind of experiment: SEC; 63.8 uM NS or gNS in 10 mM Tris-HCl pH 8.0, 50 mM KCl, incubated at 45 °C; aliquots at different times run on a Superdex 200 Increase 10/300 GL column; heat-induced polymerisation. A general note: In gel filtration, larger molecules generally elute earlier.

B1: bacterially expressed human neuroserpin (non-glycosylated) (natural protein, UniProt Q99574 17-410, looked up)
chain: TGATFPEEAIADLSVNMYNRLRATGEDENILFSPLSIALAMGMMELGAQGSTQKEIRHSMGYDSLKNGEEFSFLKEFSNMVTAKESQYVMKIANSLFVQNGFHVNEEFLQMMKKYFNAAVNHVDFSQNVAVANYINKWVENNTNNLVKDLVSPRDFDAATYLALINAVYFKGNWKSQFRPENTRTFSFTKDDESEVQIPMMYQQGEFYYGEFSDGSNEAGGIYQVLEIPYEGDEISMMLVLSRQEVPLATLEPLVKAQLVEEWANSVKKQKVEVYLPRFTVEQEIDLKDVLKALGITEIFIKDANLTGLSDNKEIFLSKAIHKSFLEVNEEGSEAAAVSGMIAISRMAVLYPQVIVDHPFFFLIRNRRTGTILFMGRVMHPETMNTSGHDFEEL
notes: human neuroserpin (NS), wild type, from the pQE81L plasmid carrying the human NS gene; theoretical mass of the construct 46,271 Da; Samples were a mix of native NS and NS cleaved at Arg362; also called NS; bacterially purified NS; source: E. coli BL21 Rosetta (DE3) pLysS, purified (HiTrap Chelating HP, Superdex200 gel filtration)
In the case of B1, the binding result was “binds”.

The record behind these values is PMC7247563, “Glycosylation Tunes Neuroserpin Physiological and Pathological Properties” (International Journal of Molecular Sciences, 2020).
